Assay results reported in the supplement of paper PMC10724198.
± gives the standard deviation of the averaged measurements.

Tested on: Saccharomyces cerevisiae
Test: protein stability index of tFT-peptide fusion (C-terminal peptide) (PSI (0-1 scale)); higher = more stable (slower turnover)
Settings: genetic background: wild type; temperature: 30 C
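Also: PSI is a weighted mean of sequencing reads over stability bins, variants kept only with over 10 reads, mCherry proximal and sfGFP distal, peptide attached via GGGS linker.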

QEIRKEILLIKS
protein stability index: 0.6 ± 0.098

RFLEKNKKVIDK
protein stability index: 0.742 ± 0.037

AVNADMHDKKIA
protein stability index: 0.7 ± 0.036

CRGRGGCPMSWR
protein stability index: 0.689 ± 0.1

PPTFPPPLPLPP
protein stability index: 0.692 ± 0.031

NSHRYDSNIPDS
protein stability index: 0.685 ± 0.057

FELTSATWRGCF
protein stability index: 0.685 ± 0.094

CPPRPLHSPLPP
protein stability index: 0.694 ± 0.022

SHPLLPPHLPPP
protein stability index: 0.682 ± 0.082

FPDGLGSVPRSP
protein stability index: 0.68389 ± 0.0004

HRCNCVFPENSL
protein stability index: 0.693 ± 0.038

SSSTPPVHVPIS
protein stability index: 0.647 ± 0.083

PPPSPPPPPLLP
protein stability index: 0.6508 ± 0.0016

DGGSGQGMLGGS
protein stability index: 0.628 ± 0.043

PRLCFPPPPAPA
protein stability index: 0.688 ± 0.083

FGIGWNDRLVEC
protein stability index: 0.669 ± 0.057

TWIPSFACQSLQ
protein stability index: 0.70274 ± 0.00029

VGGRVGERRGAP
protein stability index: 0.656 ± 0.044

VNQVRVSICDLL
protein stability index: 0.69263 ± 0.00047

GMAKGWHCESSS
protein stability index: 0.716 ± 0.041

RRRQARGANAHS
protein stability index: 0.7 ± 0.013

SPLASAVPFLIV
protein stability index: 0.633 ± 0.045

PHPRHQPNLRPT
protein stability index: 0.664 ± 0.024

VFEVNPRFDKLV
protein stability index: 0.758 ± 0.016

WLVPSGTRTGRV
protein stability index: 0.678 ± 0.028

LFRWLLRLVISH
protein stability index: 0.608 ± 0.021

ASRWVLLVGGGV
protein stability index: 0.652 ± 0.056

CSLTVGYNRHDV
protein stability index: 0.635 ± 0.00084

QDSTNTPHTCRS
protein stability index: 0.695 ± 0.06

VLCKDGHRGFGC
protein stability index: 0.589 ± 0.057

WSWTNDAFFGVV
protein stability index: 0.681 ± 0.068

ETKKKTNKRAEK
protein stability index: 0.689 ± 0.053

SPPPLPTAPPPL
protein stability index: 0.713 ± 0.066

LYPRLAPPTPPS
protein stability index: 0.686 ± 0.026

SFATSELRAGNN
protein stability index: 0.701 ± 0.17

APPPFRAPPGFR
protein stability index: 0.845 ± 0.093

YTSPRSTGPSVG
protein stability index: 0.732 ± 0.012

GFPPSPPPPSPL
protein stability index: 0.741 ± 0.085

QVNSAHKRTGSG
protein stability index: 0.668 ± 0.061

GWGGCDSVVVSG
protein stability index: 0.697 ± 0.033

SCNILPRFSPLL
protein stability index: 0.723 ± 0.033

TCLMLSCRSFLW
protein stability index: 0.63 ± 0.018

GSSYRKNDRQEK
protein stability index: 0.723 ± 0.048

RRGASWDEDAGS
protein stability index: 0.719 ± 0.0086

PPPPPPFPSSPP
protein stability index: 0.698 ± 0.013

NGTGGGSSLAFG
protein stability index: 0.644 ± 0.019

LYIHFIRSYPTI
protein stability index: 0.6354 ± 0.0036

EKQICKVVKIKE
protein stability index: 0.777 ± 0.048

HTEELKKSIKTQ
protein stability index: 0.637 ± 0.082

GSCSGTVLGGSV
protein stability index: 0.626 ± 0.024

ITNEQEMKRYDV
protein stability index: 0.667 ± 0.013

HSLRRLSLYVSL
protein stability index: 0.612 ± 0.086

RAGGGAWAGGVA
protein stability index: 0.7085 ± 0.0024

IWLSCCPLAFWS
protein stability index: 0.6896 ± 0.0065

WGRGRGEMVGRT
protein stability index: 0.705 ± 0.038

GVMASLVRMSQG
protein stability index: 0.679 ± 0.11

KKIEHRVLNELK
protein stability index: 0.6288 ± 0.00069

WIFPPLPPPLPR
protein stability index: 0.7174 ± 0.0037

RSRHPPPPLLFP
protein stability index: 0.707 ± 0.043

LPPLAYALLPPL
protein stability index: 0.571 ± 0.028

SGGGGGKEAVVR
protein stability index: 0.646 ± 0.019

RVVFHPFVQSLF
protein stability index: 0.62 ± 0.028

GCGSGGLGGWRW
protein stability index: 0.746 ± 0.18

IVVLMEADLAGC
protein stability index: 0.583 ± 0.02

SFFGPLADEIID
protein stability index: 0.73 ± 0.014

TVLKCECEYFLH
protein stability index: 0.654 ± 0.019

PPCLYPFPPPSR
protein stability index: 0.661 ± 0.017

VRCGGRGRAGKG
protein stability index: 0.634 ± 0.03

RLSSFDELSDVY
protein stability index: 0.729 ± 0.026

RGWVAGGSSAWS
protein stability index: 0.673 ± 0.054

LHSNFGSSVFSL
protein stability index: 0.713 ± 0.012

FRLILGCPFACL
protein stability index: 0.576 ± 0.034

AGLPEKARDRGS
protein stability index: 0.638 ± 0.045

RGKKGQKEPAEK
protein stability index: 0.688 ± 0.048

TLLCGDASVLTA
protein stability index: 0.658 ± 0.071

YFRYGLELVTFG
protein stability index: 0.5004 ± 0.0013

KKYIEKKFNIQK
protein stability index: 0.664 ± 0.03

FPQSDFFLLILS
protein stability index: 0.549 ± 0.013

LLCTSSGYWAWK
protein stability index: 0.699 ± 0.0087

SHPPATMRAASV
protein stability index: 0.6646 ± 0.0043

SPPSPASPPSSP
protein stability index: 0.741 ± 0.075

RGPRVVYYRLYV
protein stability index: 0.722 ± 0.12

LFENNGIKCHKR
protein stability index: 0.683 ± 0.013

HLFYASCNSSAS
protein stability index: 0.67112 ± 0.00053

PLSNAPRPSQVA
protein stability index: 0.736 ± 0.056

FVSSSVFFVFSF
protein stability index: 0.627 ± 0.058

SEGLFSVLYIWM
protein stability index: 0.687 ± 0.16

IWRLLLPLPNPF
protein stability index: 0.688 ± 0.019

GRCGGEGGGEEE
protein stability index: 0.673 ± 0.031

QFNVLPGQVGLV
protein stability index: 0.635 ± 0.027

PPPPRSPPLPRL
protein stability index: 0.743 ± 0.061

WLTNKYDNIVKD
protein stability index: 0.7634 ± 0.0068

PRTSQVNRFFRV
protein stability index: 0.721 ± 0.13

DPWGGTGKGHWG
protein stability index: 0.679 ± 0.0056

GEGRGDKGHGWT
protein stability index: 0.706 ± 0.19

PARLLIEFPSYS
protein stability index: 0.684 ± 0.021

AAGPGRWRWRGA
protein stability index: 0.643 ± 0.0093

KKICPDFGLLLV
protein stability index: 0.591 ± 0.004

PPPPPRPPPPAP
protein stability index: 0.5949 ± 0.0051

SGRGQQEENRRL
protein stability index: 0.7 ± 0.011

FNFSSGLTGSWL
protein stability index: 0.763 ± 0.024
